# Measured values taken from the RNAGym collection of RNA variant scans (doi:10.1021/acssynbio.7b00057).
# B1: Pistol ribozyme (parent)
# chain: GGGUCGUUGUUCCAUAAUCGCGUGGAUAUGGCACGCAAGUUUCUACCGGGCACCGUAAAUGUCCGACUGGAGCCGUUCGGGCGGCUAUAAACAGACCUCAGGCCCGAAGCGUGGCGGCACCUGCCGCCGGUGGUAAAAAAGAUCGGAAGAGCACACGUCU
# Variants of: B1
# Test: aptazyme ON/OFF ratio, guanine; higher = stronger switching; co-transcriptional cleavage with and without guanine
row,Variant,aptazyme ON/OFF ratio
1,U7C U8A U10C U11A C13A,1.12
2,U7C U8A U10C U11A C13G,1.15
3,U7C U8A U10A C12A C13G,1.21
4,U7C U8A U10A C12A C13A,1.17
5,U7C U8A U10A C12A C13U,1.15
6,U7C U8A U10C C12A C13A,1.17
7,U7C U8A U10C C12A C13U,1.24
8,U7C U8A U10C C12A C13G,1.07
9,U7C U8A U10A U11C C12A C13A,1.06
10,U7C U8A U10A U11C C12A C13U,1.06
11,U7C U8A U10A U11C C12A C13G,1.06
12,U7C U8A U10C U11C C12A C13G,1.27
13,U7C U8A U10C U11C C12A C13A,1.18
14,U7C U8A U10C U11C C12A C13U,1.27
15,U7C U8A U10C U11G C12A C13U,1.14
16,U7C U8A U10C U11G C12A C13G,1.21
17,U7C U8A U10C U11G C12A C13A,1.16
18,U7C U8A U10G U11G C12U C13A,1.21
19,U7C U8A U10G U11G C12U C13G,1.22
20,U7C U8A U10G U11G C12U C13U,1.44
21,U7C U8A U11G C12U,1.3
22,U7C U8A U11G C12G,1.19
23,U7C U8A U11G C12A,1.08
24,U7C U8C G9A U10A,1.54

row,Variant,aptazyme ON/OFF ratio
1,U7C U8A U10A U11C C13A,1.03
2,U7C U8A U10A U11C C13G,1.04
3,U7C U8A U10A U11C C13U,1.01
4,U7C U8C G9A U10A U11A C13A,1.18
5,U7C U8A U10C U11C C12U C13G,1.05
6,U7C U8A U10C U11C C12U C13U,1.06
7,U7C U8A U10C U11C C12U C13A,1.06
8,U7C U8A U10G C12G C13U,1.41
9,U7C U8A U10G C12G C13G,1.15
10,U7C U8A U10G C12G C13A,1.13
11,U7C U8A U10A C12G C13G,1.22
12,U7C U8A U10A C12G C13A,1.32
13,U7C U8A U10A C12G C13U,1.26
14,U7C U8C G9A C12G C13U,1.24
15,U7C U8C G9A C12G C13A,1.25
16,U7C U8C G9A C12G C13G,1.28
17,U7C U8C C12A C13U,1.34
18,U7C U8C C12A C13G,1.1
19,U7C U8C C12A C13A,1.23
20,U7C U8A G9U U11C C13A,1.04
21,U7C U8A G9U U11C C13U,1.03
22,U7C U8A G9U U11C C13G,1.03
23,U7C U8C G9A U10A U11A C12A C13U,1.19
24,U7C U8C G9A U10A U11A C12A C13G,1.16

row,Variant,aptazyme ON/OFF ratio
1,U7C U8C G9A U10A U11A C12A C13A,1.2
2,U7C U8A U10G C12U C13G,1.13
3,U7C U8A U10G C12U C13A,1.34
4,U7C U8A U10G C12U C13U,1.24
5,U7C U8A U10G U11A C13A,1.11
6,U7C U8A U10G U11A C13G,1.17
7,U7C U8A U10G U11A C13U,1.07
8,U7C U8A U11G C12G C13U,1.13
9,U7C U8A U11G C12G C13G,1.13
10,U7C U8A U11G C12G C13A,1.1
11,U7C U8A U10A U11G C12G C13A,1.03
12,U7C U8A U10A U11G C12G C13U,1.24
13,U7C U8A U10A U11G C12G C13G,1.13
14,U7C U8C G9A U10A C12G C13A,1.11
15,U7C U8C G9A U10A C12G C13G,1.27
16,U7C U8C G9A U10A C12G C13U,1.16
17,U7C U8A U10G U11A C12A C13A,1.14
18,U7C U8A U10G U11A C12A C13G,1.08
19,U7C U8A U10G U11A C12A C13U,1.24
20,U7C U8A U10C C12G C13G,1.16
21,U7C U8A U10C C12G C13U,1.31
22,U7C U8A U10C C12G C13A,1.19
23,U7C U8C G9A,1.59
24,U7C U8A U10A U11A C12A C13A,1.25

row,Variant,aptazyme ON/OFF ratio
1,U7C U8A U10A U11A C12A C13G,1.17
2,U7C U8A U10A U11A C12A C13U,1.31
3,U7C U8A U11C C13A,1.1
4,U7C U8A U11C C13U,1.04
5,U7C U8A U11C C13G,1.06
6,U7C U8A U10A U11G,1.22
7,U7C U8A U10A U11A,1.14
8,U7C U8A U10A U11C,1.05
9,U7C U8A U10G U11C C12U,1.09
10,U7C U8A U10G U11C C12A,1.62
11,U7C U8A U10G U11C C12G,1.53
12,U7C U8C C12G C13U,1.15
13,U7C U8C C12G C13A,1.12
14,U7C U8C C12G C13G,1.14
15,U7C U8A U11A C12G,1.09
16,U7C U8A U11A C12A,1.28
17,U7C U8A U11A C12U,1.16
18,U7C U8A U10A C13A,1.07
19,U7C U8A U10A C13G,1.08
20,U7C U8A U10A C13U,1.06
21,U7C U8A U10C C12U C13U,1.54
22,U7C U8A U10C C12U C13G,1.17
23,U7C U8A U10C C12U C13A,1.17
24,U7C U8A U10G C12A,1.21

row,Variant,aptazyme ON/OFF ratio
1,U7C U8A U10G C12G,1.34
2,U7C U8A U10G C12U,1.34
3,U7C U8C G9A U10A U11A,3.49
4,U7C U8A U10C U11A C12A C13A,1.2
5,U7C U8A U10C U11A C12A C13G,1.17
6,U7C U8A U10C U11A C12A C13U,1.14
7,U7C U8A U10C U11A C12U,1.19
8,U7C U8A U10C U11A C12A,1.27
9,U7C U8A U10C U11A C12G,1.2
10,U7C U8A G9U U11G,1.21
11,U7C U8A G9U U11C,1.07
12,U7C U8A U11G C12A C13G,1.14
13,U7C U8A U11G C12A C13U,1.24
14,U7C U8A U11G C12A C13A,1.11
15,U7C U8A U10A U11A C13A,1.17
16,U7C U8A U10A U11A C13U,1.17
17,U7C U8A U10A U11A C13G,1.19
18,U7C U8C G9A C12A C13U,1.42
19,U7C U8C G9A C12A C13G,1.05
20,U7C U8C G9A C12A C13A,1.24
21,U7C U8A U10A U11A C12U C13G,1.35
22,U7C U8A U10A U11A C12U C13U,1.13
23,U7C U8A U10A U11A C12U C13A,1.23
24,U7C U8A U10G U11G,1.24

row,Variant,aptazyme ON/OFF ratio
1,U7C U8A U10G U11A,1.06
2,U7C U8A U10G U11C,1.07
3,U7C U8C G9A U10A C12G,1.39
4,U7C U8C G9A U10A C12A,1.44
5,U7C U8C G9A U10A C12U,1.69
6,U7C U8A U10G U11G C12A C13A,1.18
7,U7C U8A U10G U11G C12A C13U,1.29
8,U7C U8A U10G U11G C12A C13G,1.09
9,U7C U8A U10C,1.76
10,U7C U8A U10G,1.37
11,U7C U8A U10A,1.1
12,U7C U8A U10C C13A,1.09
13,U7C U8A U10C C13U,3.34
14,U7C U8A U10C C13G,1.22
15,U7C U8A U10G U11C C12G C13A,1.3
16,U7C U8A U10G U11C C12G C13G,1.14
17,U7C U8A U10G U11C C12G C13U,1.38
18,U7C U8A U11A C12U C13A,1.16
19,U7C U8A U11A C12U C13G,1.15
20,U7C U8A U11A C12U C13U,1.24
21,U7C U8A U10G C13A,1.52
22,U7C U8A U10G C13U,1.28
23,U7C U8A U10G C13G,1.14
24,U7C U8A U10C U11G C12U C13A,1.28

row,Variant,aptazyme ON/OFF ratio
1,U7C U8A U10C U11G C12U C13G,1.16
2,U7C U8A U10C U11G C12U C13U,1.35
3,U7C U8C G9A U10A C12U C13G,1.19
4,U7C U8C G9A U10A C12U C13A,1.14
5,U7C U8C G9A U10A C12U C13U,1.13
6,U7C U8A U10G C12A C13U,1.27
7,U7C U8A U10G C12A C13G,1.07
8,U7C U8A U10G C12A C13A,1.2
9,U7C U8A U10A U11A C12U,1.26
10,U7C U8A U10A U11A C12A,1.15
11,U7C U8A U10A U11A C12G,1.2
12,U7C U8A U10A U11G C13A,1.15
13,U7C U8A U10A U11G C13U,1.21
14,U7C U8A U10A U11G C13G,1.04
15,U7C U8A U10G U11C C12A C13G,1.11
16,U7C U8A U10G U11C C12A C13U,1.45
17,U7C U8A U10G U11C C12A C13A,1.37
18,U7C U8A U10C U11A C12G C13G,1.25
19,U7C U8A U10C U11A C12G C13U,1.09
20,U7C U8A U10C U11A C12G C13A,1.14
21,U7C U8A U10C U11G C12G,1.37
22,U7C U8A U10C U11G C12U,1.17
23,U7C U8A U10C U11G C12A,1.1
